± gives the uncertainty stated by the source.

This data set is described as follows: self-splicing fitness, log relative to wild type (ln ratio); higher = more splicing; Tetrahymena group I intron in knt gene, E. coli kanamycin selection, DiMSum; sequences stand for … in CUCUCU…GGAGGGAAAAGUUAUCAGGCAUGCACCUGGUAGCUAGUCUUUAAACCAAUAGAUUGCAUCGGUUUAAAAGGCAAGACCGUCAAAUUGCGGGAAAGGGGUCAACAGCCGUUCAGUACCAAGUCUCAGGGGAAACUUUGAGAUGGCCUUGCAAAGGGUAUGGUAAUAAGCUGACGGACAUGGUCCUAACCACGCAGCCAAGUCCUAAGUCAACAGAUCUUCUGUUGAUAUGGAUGCAGUUCACAGACUAAAUGUCGGUCGGGGAAGAUGUAUUCUUCUCAUAAGAUAUAGUCGGACCUCUCCUUAAUGGGAGCUAGCGGAUGAAGUGAUGCAACACUGGAGCCGCUGGGAACUAAUUUGUAUGCGAAAGUAUAUUGAUUAGUUUUGGAGUACUCGUGGUCG
Put shortly:
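Library with all eight P1ex-region intron nucleotides randomised, intron inside the knt kanamycin-resistance gene on pET-22b(+), in E. coli BL21(DE3). Cells grew overnight at 37°C or 30°C on LB agar with or without 25 μg/mL kanamycin (plus 100 μg/mL carbenicillin, 50 μM IPTG, 0.2% rhamnose), in six replicate transformations. Pooled colonies were amplicon-sequenced on Illumina HiSeq 2500. DiMSum fitness is the error-weighted combination of wild-type-normalised replicate fold changes, kanamycin versus none.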

With AUCCAGCAAUAUUACGCAUA, the “self-splicing fitness (ln)” value (30 °C) is -1.19 ± 0.12 and the “self-splicing fitness (ln)” value (37 °C) is -0.443 ± 0.12.

Consider ACUAAGCAAUAUUACGAGAA, for which the “self-splicing fitness (ln)” value reads like this: (30 °C) -2.46 ± 0.28; (37 °C) -2.37 ± 0.26. For UGAUAGCAAUAUUACGUGCA the same measures were -0.486 ± 0.054 and 0.164 ± 0.076. As for AUCCAGCAAUAUUACGGAUC, the “self-splicing fitness (ln)” value (30 °C) is -3.35 ± 0.18 and the “self-splicing fitness (ln)” value (37 °C) was -3.11 ± 0.2.

Regarding GUGAAGCAAUAUUACGGCCU, the “self-splicing fitness (ln)” value is, setting by setting: (30 °C) 0.395 ± 0.068; (37 °C) 0.277 ± 0.085. For GGCCAGCAAUAUUACGGCCA the same measures were -2.42 ± 0.16 and -1.03 ± 0.17. For GUUCAGCAAUAUUACGGGAG the same measures were -0.317 ± 0.077 and -0.683 ± 0.095.

For GUUGAGCAAUAUUACGCACG, the “self-splicing fitness (ln)” value (30 °C) is -3.13 ± 0.43.

With GACUAGCAAUAUUACGCCAG, the “self-splicing fitness (ln)” value (30 °C) is -1.31 ± 0.22. With GUUCAGCAAUAUUACGGCUU, the “self-splicing fitness (ln)” value runs as follows: (30 °C) -0.546 ± 0.086; (37 °C) 0.571 ± 0.12. Consider UCCGAGCAAUAUUACGCGAU, for which the “self-splicing fitness (ln)” value (37 °C) was -2.3 ± 0.35.

Turning to UAUAAGCAAUAUUACGGAGC, the “self-splicing fitness (ln)” value (37 °C) is -2.14 ± 0.28. As for GUUUAGCAAUAUUACGUCAU, the “self-splicing fitness (ln)” value is -0.998 ± 0.069 (30 °C) and -0.817 ± 0.099 (37 °C). For UUGAAGCAAUAUUACGGAUG the same measures were 0.196 ± 0.1 and 0.219 ± 0.12. Consider ACGCAGCAAUAUUACGCUUA, for which the “self-splicing fitness (ln)” value by setting is: (30 °C) -0.737 ± 0.089; (37 °C) -0.286 ± 0.099. The matching figures for UCCUAGCAAUAUUACGACAU: -3.634 ± 0.026 and -2.16 ± 0.037. For GCUGAGCAAUAUUACGGGGC the same measures were -3.02 ± 0.24 and -3.85 ± 0.42.

With GUGAAGCAAUAUUACGCGGU, the “self-splicing fitness (ln)” value is -3.01 ± 0.28 (30 °C) and -0.0814 ± 0.17 (37 °C). On to GGUGAGCAAUAUUACGAGCC, for which the “self-splicing fitness (ln)” value (37 °C) is -1.52 ± 0.43. As to UUGAAGCAAUAUUACGGGCU, the “self-splicing fitness (ln)” value runs as follows: (30 °C) -3.02 ± 0.14; (37 °C) -1.16 ± 0.1.

With UGCCAGCAAUAUUACGGUCG, the “self-splicing fitness (ln)” value (30 °C) was -1.14 ± 0.068 and the “self-splicing fitness (ln)” value (37 °C) is -0.0276 ± 0.075. The matching figures for GGGUAGCAAUAUUACGUAAU: -0.889 ± 0.085 and -0.379 ± 0.11. For CGUUAGCAAUAUUACGACUU the same measures were -1.03 ± 0.12 and -0.0418 ± 0.17. The matching figures for GUUUAGCAAUAUUACGUCAA: -2.3 ± 0.18 and -0.778 ± 0.16. Regarding GGCUAGCAAUAUUACGGCAU, the “self-splicing fitness (ln)” value is -0.0766 ± 0.11 (30 °C) and 0.833 ± 0.13 (37 °C). As for AUCAAGCAAUAUUACGGACA, the “self-splicing fitness (ln)” value (30 °C) was -0.967 ± 0.075 and the “self-splicing fitness (ln)” value (37 °C) was -0.478 ± 0.093. For AGAAAGCAAUAUUACGGUAC the same measures were -3.29 ± 0.32 and -1.67 ± 0.23. For GGCAAGCAAUAUUACGGUGA the same measures were -0.759 ± 0.071 and -0.336 ± 0.077. For GAGGAGCAAUAUUACGCAGG the same measures were -1.91 ± 0.35 and -2.08 ± 0.36. In the case of CUUAAGCAAUAUUACGCCAG, the “self-splicing fitness (ln)” value was -2.49 ± 0.22 (30 °C) and -2.06 ± 0.33 (37 °C). For CAUUAGCAAUAUUACGUGGG, the “self-splicing fitness (ln)” value reads like this: (30 °C) -3.46 ± 0.17; (37 °C) -2.76 ± 0.21. The matching figures for AUAAAGCAAUAUUACGCAGA: -1.87 ± 0.093 and -0.796 ± 0.11.

For AGAAAGCAAUAUUACGAGGG, the “self-splicing fitness (ln)” value was -2.8 ± 0.21 (30 °C) and -2.61 ± 0.36 (37 °C). For GUACAGCAAUAUUACGGCGA the same measures were -1.14 ± 0.18 and -1.09 ± 0.14. In the case of UAUCAGCAAUAUUACGUCUG, the “self-splicing fitness (ln)” value runs as follows: (30 °C) -0.947 ± 0.076; (37 °C) -0.205 ± 0.1. For UCUCAGCAAUAUUACGCCAA the same measures were -2.86 ± 0.27 and -2.74 ± 0.29. The matching figures for GCCGAGCAAUAUUACGACGU: -0.371 ± 0.11 and -0.741 ± 0.11.

Take AGCGAGCAAUAUUACGGUUA: the “self-splicing fitness (ln)” value (30 °C) is -1.22 ± 0.12 and the “self-splicing fitness (ln)” value (37 °C) was -1.9 ± 0.11.

For the sequence AUCCAGCAAUAUUACGACUA, the “self-splicing fitness (ln)” value (30 °C) is -0.459 ± 0.097 and the “self-splicing fitness (ln)” value (37 °C) was -0.0254 ± 0.084. The matching figures for AUUCAGCAAUAUUACGAAUU: -3.71 ± 0.15 and -2.29 ± 0.16. Take CACCAGCAAUAUUACGAUCA: the “self-splicing fitness (ln)” value reads like this: (30 °C) -2.75 ± 0.15; (37 °C) -1.43 ± 0.16. Take ACUAAGCAAUAUUACGGGCA: the “self-splicing fitness (ln)” value is, setting by setting: (30 °C) -1.27 ± 0.089; (37 °C) -0.405 ± 0.1. The matching figures for CCAUAGCAAUAUUACGUGGA: -2.2 ± 0.14 and -2.16 ± 0.18.

In the case of GCCGAGCAAUAUUACGAUGG, the “self-splicing fitness (ln)” value was -2.48 ± 0.26 (30 °C) and -2.96 ± 0.31 (37 °C). For CAUGAGCAAUAUUACGAAAG the same measures were -1.36 ± 0.11 and -1.18 ± 0.14.

On to UCAAAGCAAUAUUACGUGUA, for which the “self-splicing fitness (ln)” value is -1.78 ± 0.07 (30 °C) and -0.388 ± 0.066 (37 °C). For the sequence UGGCAGCAAUAUUACGGGUC, the “self-splicing fitness (ln)” value is -3.28 ± 0.29 (30 °C) and -1.28 ± 0.28 (37 °C).

As for GUGUAGCAAUAUUACGUGAU, the “self-splicing fitness (ln)” value was -1.59 ± 0.17 (30 °C) and 0.0886 ± 0.19 (37 °C). Turning to UGUCAGCAAUAUUACGGCAC, the “self-splicing fitness (ln)” value (30 °C) was -2.42 ± 0.35.

For the sequence GGGUAGCAAUAUUACGGGGA, the “self-splicing fitness (ln)” value runs as follows: (30 °C) -3.52 ± 0.35; (37 °C) -2.31 ± 0.38. With AUUUAGCAAUAUUACGGUGG, the “self-splicing fitness (ln)” value by setting is: (30 °C) -3.55 ± 0.31; (37 °C) -3.1 ± 0.27. The matching figures for UAGCAGCAAUAUUACGUUCA: 0.0863 ± 0.062 and 0.0609 ± 0.1.

With GGUCAGCAAUAUUACGACUC, the “self-splicing fitness (ln)” value runs as follows: (30 °C) -3.25 ± 0.24; (37 °C) -1.61 ± 0.32. CAUGAGCAAUAUUACGGCGC: the “self-splicing fitness (ln)” value (30 °C) was -3.56 ± 0.25 and the “self-splicing fitness (ln)” value (37 °C) is -4.32 ± 0.36. Take UGUGAGCAAUAUUACGUAUC: the “self-splicing fitness (ln)” value is -3.75 ± 0.37 (30 °C) and -2.3 ± 0.32 (37 °C). The matching figures for UGAGAGCAAUAUUACGUAGA: -2.94 ± 0.33 and -1.28 ± 0.35. The matching figures for GCGAAGCAAUAUUACGCUAU: -2.45 ± 0.1 and -1.25 ± 0.11.

Consider UCGCAGCAAUAUUACGAUGC, for which the “self-splicing fitness (ln)” value by setting is: (30 °C) -3.73 ± 0.28; (37 °C) -1.64 ± 0.2. The matching figures for AUUAAGCAAUAUUACGGUCU: -0.183 ± 0.15 and 0.0171 ± 0.15. For AGGGAGCAAUAUUACGUAUA, under “30 °C”, the “self-splicing fitness (ln)” value was -3.19 ± 0.42. For the sequence GGGUAGCAAUAUUACGGCCA, the “self-splicing fitness (ln)” value (30 °C) was -0.214 ± 0.16 and the “self-splicing fitness (ln)” value (37 °C) was -0.498 ± 0.24. For UCGCAGCAAUAUUACGCAGA the same measures were -3.72 ± 0.29 and -0.987 ± 0.12. For GGCAAGCAAUAUUACGGUUC the same measures were -0.000497 ± 0.07 and -0.268 ± 0.1.

Turning to AGAAAGCAAUAUUACGCGAA, the “self-splicing fitness (ln)” value (30 °C) is -1.95 ± 0.13 and the “self-splicing fitness (ln)” value (37 °C) was -1.08 ± 0.16. For CUCAAGCAAUAUUACGACAC the same measures were -3.35 ± 0.29 and -2.52 ± 0.3. UGCAAGCAAUAUUACGCGGU: the “self-splicing fitness (ln)” value (30 °C) was -3.01 ± 0.23 and the “self-splicing fitness (ln)” value (37 °C) is -2.25 ± 0.21. Regarding CUGGAGCAAUAUUACGCUCG, under “30 °C”, the “self-splicing fitness (ln)” value is -1.13 ± 0.18. CUUAAGCAAUAUUACGUACA: the “self-splicing fitness (ln)” value (37 °C) was -2.73 ± 0.39. Turning to GCCGAGCAAUAUUACGAUAG, the “self-splicing fitness (ln)” value runs as follows: (30 °C) -2.94 ± 0.21; (37 °C) -2.13 ± 0.21. Turning to UCACAGCAAUAUUACGAAAC, the “self-splicing fitness (ln)” value runs as follows: (30 °C) -3.36 ± 0.37; (37 °C) -2.7 ± 0.25. For UGGCAGCAAUAUUACGUGUU the same measures were -3.93 ± 0.19 and -2.2 ± 0.12.

For AUUGAGCAAUAUUACGCUAU, the “self-splicing fitness (ln)” value by setting is: (30 °C) -3.5 ± 0.44; (37 °C) -2.12 ± 0.42. The matching figures for UACGAGCAAUAUUACGUGCA: -3.16 ± 0.19 and -1.32 ± 0.13. For CACCAGCAAUAUUACGCCAU the same measures were -3.39 ± 0.31 and -2.03 ± 0.29.

For the sequence AGUAAGCAAUAUUACGUCUU, the “self-splicing fitness (ln)” value was -0.968 ± 0.072 (30 °C) and -0.0602 ± 0.078 (37 °C). Regarding AUCUAGCAAUAUUACGCCAA, the “self-splicing fitness (ln)” value (37 °C) was -0.995 ± 0.48. Regarding GCGCAGCAAUAUUACGUAAU, the “self-splicing fitness (ln)” value is, setting by setting: (30 °C) -0.192 ± 0.061; (37 °C) 0.31 ± 0.07. The matching figures for CAUUAGCAAUAUUACGGUGU: -3.92 ± 0.2 and -3.76 ± 0.23.
